This is an account of results in US20240247080A1, “GLP1/GIP/NPY2 RECEPTOR TRIPLE AGONISTS” (Boehringer Ingelheim International GmbH, priority 2022, published 2024).

Assay in all cases: cell-based or functional assay
The target of one assay is T1, human GIP receptor (human, UniProt P48546 22-466).
T1 sequence (looked up): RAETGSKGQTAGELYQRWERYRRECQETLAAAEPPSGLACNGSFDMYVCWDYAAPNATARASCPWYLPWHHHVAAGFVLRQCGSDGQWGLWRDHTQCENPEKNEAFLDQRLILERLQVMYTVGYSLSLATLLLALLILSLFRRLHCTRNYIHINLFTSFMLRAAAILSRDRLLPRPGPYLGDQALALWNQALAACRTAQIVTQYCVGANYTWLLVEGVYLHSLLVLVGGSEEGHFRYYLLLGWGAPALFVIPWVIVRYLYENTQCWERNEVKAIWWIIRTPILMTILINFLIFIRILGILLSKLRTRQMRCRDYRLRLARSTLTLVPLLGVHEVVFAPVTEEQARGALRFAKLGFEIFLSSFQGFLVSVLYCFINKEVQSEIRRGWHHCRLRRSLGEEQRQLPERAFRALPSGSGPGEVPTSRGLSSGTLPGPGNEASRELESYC

The target of assay [1] is T2, human neuropeptide Y2 (NPY2) receptor (human, UniProt P49146 1-381).
T2 sequence (looked up): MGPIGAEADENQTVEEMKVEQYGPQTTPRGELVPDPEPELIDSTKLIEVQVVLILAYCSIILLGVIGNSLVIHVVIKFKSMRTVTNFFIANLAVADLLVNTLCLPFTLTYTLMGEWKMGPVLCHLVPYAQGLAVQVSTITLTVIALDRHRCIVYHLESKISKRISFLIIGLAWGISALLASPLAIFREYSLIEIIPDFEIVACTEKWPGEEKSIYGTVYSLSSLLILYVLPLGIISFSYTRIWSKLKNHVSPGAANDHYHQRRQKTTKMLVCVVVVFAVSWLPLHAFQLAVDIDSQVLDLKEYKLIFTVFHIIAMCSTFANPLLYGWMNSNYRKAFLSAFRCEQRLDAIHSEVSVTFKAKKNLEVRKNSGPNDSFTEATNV

A further assay concerns the target human GLP-1 receptor (human, UniProt P43220 24-463).

Starred links: 1 amine or outer side, 2 acyl side, 3 side chain; linkers in the order of their positions; H or OH if unused. Non-standard residues stand in square brackets, D forms with d. Groups on a side chain read outwards from the residue. No end group written: not given here. *: point of attachment. C20 diacid = O=C(O)CCCCCCCCCCCCCCCCCCC(=O)*; C18 diacid = O=C(O)CCCCCCCCCCCCCCCCC(=O)*; γGlu = O=C(O)[C@H](CCC(=O)[*:2])N[*:1]; εLys = N[C@@H](CCCCN[*:1])C(=O)[*:2]; Aib = CC(C)(N)C(=O)O

Regarding Y[Aib]EGTFTSDYSI[Aib]LEKQAQ[Aib]AFVQWLIK([εLys-γGlu-γGlu-γGlu-γGlu-γGlu-C18 diacid])GGPESGASLRHYYNWLTRQRY-NH2 (also: TFA salt) [Compound 60], the “EC50, CreLuc assay, 0.5% hP” value came out at 0.33 nM in the assay with human GIP receptor, 7.43 nM in assay [1] and 0.08 nM with human GLP-1 receptor. Further, the “EC50, CreLuc assay, 100% hP” value with human GIP receptor was determined as 0.35 nM; in assay [1], 23.1 nM; with human GLP-1 receptor, 1.69 nM.
For the molecule Y[Aib]EGTFTSDYSI[Aib]LEKQAQ[Aib]AFVQWLIK([εLys-γGlu-γGlu-γGlu-γGlu-γGlu-C20 diacid])GGPEEPASLRHYYNWLTRQRY-NH2 (also: TFA salt) [Compound 67], the “EC50, CreLuc assay, 0.5% hP” value in the assay with human GIP receptor came to 0.29 nM; in assay [1], 13.7 nM; in the assay with human GLP-1 receptor, 0.38 nM. Moreover, the figures for the “EC50, CreLuc assay, 100% hP” value (with human GIP receptor; in assay [1]; in the assay with human GLP-1 receptor) were 6.18 nM, 78.9 nM and 27.4 nM, respectively.
For Y[Aib]EGTFTSDYSI[Aib]LEKQAQ[Aib]AFVEWLIK([γGlu-γGlu-γGlu-γGlu-γGlu-γGlu-C20 diacid])GGGSEYVSLRHYYNWLTRQRY-NH2 (also: TFA salt) [Compound 65], the “EC50, CreLuc assay, 0.5% hP” value was determined as 1.03 nM with human GIP receptor, 10.9 nM in assay [1] and 2.65 nM in the assay with human GLP-1 receptor. In addition, the “EC50, CreLuc assay, 100% hP” value with human GIP receptor was 15.7 nM; in assay [1], 24.2 nM; with human GLP-1 receptor it was 49.3 nM.
For Y[Aib]EGTFTSDYSI[Aib]LEKQAQ[Aib]AFVQWLIK([εLys-Glu-Glu-Glu-Glu-Glu-C18 diacid])GGPESGASLRHYYNWLTRQRY-NH2 (also: TFA salt) [Compound 63], the results for the “EC50, CreLuc assay, 0.5% hP” value (with human GIP receptor; in assay [1]; with human GLP-1 receptor) were 0.13 nM, 15.2 nM and 0.08 nM, respectively. Also, the “EC50, CreLuc assay, 100% hP” value was 0.89 nM with human GIP receptor, 74.3 nM in assay [1] and 3 nM with human GLP-1 receptor.
With Y[Aib]EGTFTSDYSI[Aib]LEKQAQ[Aib]AFVQWLIK([εLys-γGlu-γGlu-γGlu-γGlu-γGlu-C20 diacid])GGPESGASLRHYYNWLTRQRY-NH2 (also: TFA salt) [Compound 61], the “EC50, CreLuc assay, 0.5% hP” value with human GIP receptor was 0.36 nM; in assay [1] it was 6.25 nM; with human GLP-1 receptor, 0.11 nM. Further, the “EC50, CreLuc assay, 100% hP” value with human GIP receptor was found to be 0.56 nM; in assay [1], 37.6 nM; with human GLP-1 receptor, 3.95 nM.

B1: Compound 62 (peptide)
peptide: YXEGTFTSDYSIXLEKQAQXAFVEWLIKGGPRYYASLRHYYNWLTRQRY
modifications: Aib at 2, 13, 20; K28 side chain: C20DA-gGlu-gGlu-gGlu-gGlu-gGlu-gGlu-eLys; C-terminal NH2
B1: the “EC50, CreLuc assay, 0.5% hP” value with human GIP receptor worked out at 0.48 nM; in assay [1], 13.6 nM; in the assay with human GLP-1 receptor it was 0.78 nM. Moreover, the “EC50, CreLuc assay, 100% hP” value amounted to 5.35 nM with human GIP receptor, 40.5 nM in assay [1] and 9.23 nM with human GLP-1 receptor.

B2: Compound 72 (peptide)
peptide: YXEGTFTSDYSIXLEKQAQXAFVEWLIKGGPSSGADLRHYLNWLTRQRY
modifications: Aib at 2, 13, 20; K28 side chain: C20DA-gGlu-gGlu-gGlu-gGlu-gGlu-gGlu-eLys; C-terminal NH2
On to B2, for which the entries for the “EC50, CreLuc assay, 0.5% hP” value (with human GIP receptor; in assay [1]; with human GLP-1 receptor) were 0.29 nM, 29.1 nM and 0.15 nM, respectively. Further, the “EC50, CreLuc assay, 100% hP” value with human GIP receptor turned out to be 2.12 nM; in assay [1] it was 149 nM; with human GLP-1 receptor, 2.87 nM.

B3: Compound 69 (peptide)
peptide: YXEGTFTSDYSIXLEKEKQXAFVEWLIKGGPSSGASLRHYYNWLTRQRY
modifications: Aib at 2, 13, 20; K28 side chain: C20DA-gGlu-gGlu-gGlu-gGlu-gGlu-gGlu-eLys; C-terminal NH2
For the molecule B3, the figures for the “EC50, CreLuc assay, 0.5% hP” value (with human GIP receptor; in assay [1]; in the assay with human GLP-1 receptor) were 0.8 nM, 8.41 nM and 1.48 nM, respectively. Moreover, the “EC50, CreLuc assay, 100% hP” value came out at 2.95 nM with human GIP receptor, 26.6 nM in assay [1] and 27.8 nM in the assay with human GLP-1 receptor.

B4: Compound 66 (peptide)
peptide: YXEGTFTSDYSIXLEEEAQXAFVEWLIKGGPSSGASLRHYYNWLTRQRY
modifications: Aib at 2, 13, 20; K28 side chain: C20DA-gGlu-gGlu-gGlu-gGlu-gGlu-gGlu-eLys; C-terminal NH2
Turning to B4, the “EC50, CreLuc assay, 0.5% hP” value in the assay with human GIP receptor was determined as 0.64 nM; in assay [1], 18.8 nM; with human GLP-1 receptor, 0.24 nM. Besides, the “EC50, CreLuc assay, 100% hP” value was 3.06 nM in the assay with human GIP receptor, 85.6 nM in assay [1] and 11.6 nM with human GLP-1 receptor.

B5: Compound 73 (peptide)
peptide: YXEGTFTSDYSIXLEKQAQXAFVEWLIKGGPSSPESLRHYYNWLTRQRY
modifications: Aib at 2, 13, 20; K28 side chain: C20DA-gGlu-gGlu-gGlu-gGlu-gGlu-gGlu-eLys; C-terminal NH2
Turning to B5, the “EC50, CreLuc assay, 0.5% hP” value in the assay with human GIP receptor worked out at 0.11 nM; in assay [1], 32.2 nM; in the assay with human GLP-1 receptor, 0.19 nM. Further, the “EC50, CreLuc assay, 100% hP” value in the assay with human GIP receptor worked out at 1.61 nM; in assay [1], 107 nM; in the assay with human GLP-1 receptor, 4.76 nM.

B6: Compound 8 (peptide)
peptide: YXEGTFTSDYSIXLEEQAQXAFVQWLIKGGPSSGQSLRHYYNWLTRQRY
modifications: Aib at 2, 13, 20; K28 side chain: C20DA-gGlu-Glu-gGlu-gGlu-gGlu-gGlu-eLys; C-terminal NH2
Turning to B6, the “EC50, CreLuc assay, 0.5% hP” value in the assay with human GIP receptor came out at 0.12 nM; in assay [1] it was 11.6 nM; with human GLP-1 receptor it was 0.04 nM. Besides, the “EC50, CreLuc assay, 100% hP” value turned out to be 1.72 nM with human GIP receptor, 43 nM in assay [1] and 1.05 nM with human GLP-1 receptor.

B7: Compound 71 (peptide)
peptide: YXEGTFTSDYSIXLEKQAQXAFVEWLIKGGPSSGASLRHYYNWLTXQRY
modifications: Aib at 2, 13, 20; hArg 46; DTyr 49; K28 side chain: C20DA-gGlu-gGlu-gGlu-gGlu-gGlu-gGlu-eLys; C-terminal NH2
With B7, the figures for the “EC50, CreLuc assay, 0.5% hP” value (in the assay with human GIP receptor; in assay [1]; with human GLP-1 receptor) were 0.13 nM, more than 100 nM and 0.14 nM, respectively. Further, the figures for the “EC50, CreLuc assay, 100% hP” value (with human GIP receptor; in assay [1]; with human GLP-1 receptor) were 0.64 nM, more than 1000 nM and 1.13 nM, respectively.

B8: Compound 68 (peptide)
peptide: YXEGTFTSDYSIXLEKQAQXAFVEWLIKGGPSSGASLRHYYNRXTRQRY
modifications: Aib at 2, 13, 20, 44; K28 side chain: C20DA-gGlu-gGlu-gGlu-gGlu-gGlu-gGlu-eLys; C-terminal NH2
As for B8, the “EC50, CreLuc assay, 0.5% hP” value was 0.32 nM in the assay with human GIP receptor, 53.9 nM in assay [1] and 0.12 nM with human GLP-1 receptor. For the same molecule, the “EC50, CreLuc assay, 100% hP” value was 2.05 nM with human GIP receptor, 139 nM in assay [1] and 2.19 nM with human GLP-1 receptor.

B9: Compound 74 (peptide)
peptide: YXEGTFTSDYSIXLEKQAQXAFVEWLIKGGPSSGASXRHYYNWLTRQRY
modifications: Aib at 2, 13, 20, 37; DTyr 49; K28 side chain: C20DA-gGlu-gGlu-gGlu-gGlu-gGlu-gGlu-eLys; C-terminal NH2
Regarding B9, the “EC50, CreLuc assay, 0.5% hP” value amounted to 0.1 nM with human GIP receptor, 53.4 nM in assay [1] and 0.08 nM with human GLP-1 receptor. The “EC50, CreLuc assay, 100% hP” value worked out at 0.62 nM with human GIP receptor, 110 nM in assay [1] and 1.13 nM with human GLP-1 receptor.
Y[Aib]EGTFTSDYSI[Aib]LEKQAQ[Aib]AFVEWLIKGGPESPASLRHYYNWLTRQRY-NH2 (not fully specified (residue 28); also: TFA salt) [Compound 64]: the “EC50, CreLuc assay, 0.5% hP” value with human GIP receptor worked out at 0.18 nM; in assay [1] it was 17 nM; with human GLP-1 receptor, 0.29 nM. Also, the “EC50, CreLuc assay, 100% hP” value in the assay with human GIP receptor amounted to 2.37 nM; in assay [1] it was 95.3 nM; in the assay with human GLP-1 receptor it was 11.2 nM.

B10: Compound 2 (peptide)
peptide: YXEGTFTSDYSIXLEKQAQXAFVEWLIKGGPSSGIELRHFLNHLTRQRY
modifications: Aib at 2, 13, 20; K28 side chain: C20DA-gGlu-gGlu-gGlu-gGlu-gGlu-gGlu-eLys; C-terminal NH2
With B10, the entries for the “EC50, CreLuc assay, 0.5% hP” value (in the assay with human GIP receptor; in assay [1]; with human GLP-1 receptor) were 0.35 nM, more than 100 nM and 0.1 nM, respectively. Further, the results for the “EC50, CreLuc assay, 100% hP” value (with human GIP receptor; in assay [1]; in the assay with human GLP-1 receptor) were 1.56 nM, 564 nM and 1.39 nM, respectively.
For Y[Aib]EGTFTSDYSI[Aib]LEKQAQ[Aib]AFVEWLIK([εLys-γGlu-γGlu-γGlu-γGlu-γGlu-C20 diacid])GGPESPASLRHYYNWLTRQRY-NH2 (also: TFA salt) [Compound 70], the “EC50, CreLuc assay, 0.5% hP” value with human GIP receptor came to 0.28 nM; in assay [1] it was 16.2 nM; in the assay with human GLP-1 receptor it was 0.3 nM. The “EC50, CreLuc assay, 100% hP” value came out at 2.62 nM with human GIP receptor, 67.2 nM in assay [1] and 22.2 nM with human GLP-1 receptor.
